The term Km denotes the concentration of substrate that gives half-maximal velocity.

Substrate in series [1]: CC(C)(COP(=O)(O)OP(=O)(O)OC[C@H]1O[C@@H](n2cnc3c(N)ncnc32)[C@H](O)[C@@H]1OP(=O)(O)O)[C@@H](O)C(=O)NCCC(=O)NCCSC(=O)c1ccc(F)cc1
The series is described as follows: continuous spectrophotometric assay, dithionite-reduced methyl viologen as electron donor. In kind it is biochemical, Thauera aromatica. Particulars: ATP-dependent, 30°C, enriched enzyme.

Substrate in series [2]: CC(C)(COP(=O)(O)OP(=O)(O)OC[C@H]1O[C@@H](n2cnc3c(N)ncnc32)[C@H](O)[C@@H]1OP(=O)(O)O)[C@@H](O)C(=O)NCCC(=O)NCCSC(=O)c1ccccc1
Described as above. It is filed as biochemical, Thauera aromatica. Particulars: ATP-dependent, 30°C, enriched enzyme.

B1: 4-F-BCR / class I benzoyl-CoA reductase (BCR, BcrABCD) (Thauera aromatica) (protein)
chain 1: SAKTNPEVIKESSMVKQKEMIAGNYDRLTGTKESGEKVVSTFVPGNLNELIMCFDMVNNLPETNAIQNGMRKQSGGMIMDAEKAGHSEDVCTYVKADIGMMGRGNIAPNGKPMPAPDMLLLSYTGCFTFMKWFELLRHEYKCPTVMLQIPYQGDGKITKNMRDFVVKQLKEEVIPMFEQVSGVKFDIDRLREYLKNSAKAEDDLVWVLESAKNRPSPIDAYFGGVYYIGPMFTAFRGTADAVEYYGLLRGEIEQRIREGKGPITPEGDMKEEKYRLVVEGPPNWTSFREFWKLFYDEGAVVVASSYTKVGGLYDQGFRHDPNDPLGTLADYCLGCYTNNNLPQRVELLEKYMNEYQADGLLINSIKSCNSFSAGQLLMMREIEKRTGKPAAFIETDLVDPRYFSHANVKNRLESYFQMVDQKRSGASLATA
chain 2: STADIIARCEALYEDLDFTAARQWKEADPSRKVIAYMPVYVPREIIHAAGMLPLGIMGGGDGLEVIHGDAFYQSYICRIPRSTIELGLSKRMDFVDGMLFPSICDVIRNLSGMWKLMFPGKYVRYFDVPQNYRDDVGGNYYTAELNELREGLEHLSGRKITDDALRASIKVYNENRKLVQDVYGLRSREPWKVPSADVYLLMRAGLVLPVEEHNQMLKDYLAAAVKVEAQKRDNCRVIINGSFCEQPPLNLIKSIELSGCYIVDDDYMIVHRFLRNEVSTAGDPMQNLSLAFLHESISTAAKYDDKEEDKGKYLLEQVRTNAAEGVIFAAPSFCDPALLERPMLADRCSENKVPYISFKYAENSGQMQPIREQAGTFADSIKLWS
notes: native enzyme enriched from 4-fluorobenzoate-grown cells, heterotetramer of four subunits BcrABCD, no tag; with Benzoyl-CoA reductase subunit A; Benzoyl-CoA reductase subunit D
With B1, the Km in series [1] is 97 µM; in series [2] it was 43 µM.

(Values after PMC4992971, “ATP-Dependent C–F Bond Cleavage Allows the Complete Degradation of 4-Fluoroaromatics without Oxygen” (mBio, 2016).)
